Data as given in patent US20040234519A1.

What was measured:
[1] = target: T1, recombinant human PTN (R & D Systems, cat# 252-PL) (human) (UniProt P21246); test: ELISA, plate coated with rhPTN, hybridoma antibody, read at 450 nm
T1 sequence: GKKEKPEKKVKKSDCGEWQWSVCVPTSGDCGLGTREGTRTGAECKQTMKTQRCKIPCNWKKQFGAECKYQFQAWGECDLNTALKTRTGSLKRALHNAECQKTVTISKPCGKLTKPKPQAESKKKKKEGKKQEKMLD

[2] = target: T2, PTN secreted by SW13/PTN cells (SW13 human adrenal carcinoma cells stably transfected with PTN cDNA) (human) (UniProt P21246); test: cell-based or functional assay
T2 sequence: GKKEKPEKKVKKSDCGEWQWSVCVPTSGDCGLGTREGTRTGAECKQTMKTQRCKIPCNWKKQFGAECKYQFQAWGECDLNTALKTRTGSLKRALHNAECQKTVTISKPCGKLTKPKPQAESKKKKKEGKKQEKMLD

[3] = target: T2, PTN secreted by SW13/PTN cells (SW13 human adrenal carcinoma cells stably transfected with PTN cDNA) (human); test: ELISA, PTN captured from SW13/PTN supernatant by goat anti-human PTN polyclonal, read at 450 nm

- ELISA OD [1]: 0.597 OD
- Proliferation NIH 3T3 (inhibition) [2]: 50 % inhibition
- Proliferation U87 MG (inhibition) [2]: 50 % inhibition
- Proliferation WI38 (inhibition) [2]: 25 % inhibition
- Soft Agar (inhibition) [2]: 100 % inhibition
- inhibition of SW13 colony formation in soft agar, antibody at 10 ug/ml [2]: < 95%
- ELISA OD [3]: 0.139 OD
B1: monoclonal antibody produced by the hybridoma cell line 3B10 (antibody, V domains shown)
VH: QVQLQQSGPELVKPGASVKISCQASGYAFSSHWMNWVKQRPGKGLEWIGRIYPGDGDSLYNGKFKGKATLTADKSSTTVYMQLSSLTSEDSAVYFCARTRAYGPAWFAYWGQGTLVTVSA
VL: DIVMTQSPSSLAMSVGQKVTLSCRSSQSLLDSNNQKNYLAWYQQKPGQSPKLLVYFASIRESGVPDRFIGSGSGTDFTLTITSVQAEDLADYFCQQHYSTPLTFGAGTKLELK
modifications: N-terminus of the heavy chain blocked, most likely modified NH2-terminal glutamine
